# From the supplement of paper PMC10567573
# B1: NP_015628.1 (parent)
# chain: EQRNSRWNTVLRAVKAKTHHLEP
# B2: APBB1IP (parent)
# chain: FNYSVGFKDLNESLNALEDQDLDA
# Variants of: B1
# Assay: protein stability index of a GFP-peptide fusion (GPS, HEK-293T) (PSI 1-6); higher = more stable
# Conditions: c terminus: native
row,Variant,protein stability index
1,EQRNSRLNTVLRAVKAKTHHLEP,4.66
2,EQRNSRCNTVLRAVKAKTHHLEP,5.2
3,EQRNSRVNTVLRAVKAKTHHLEP,4.88
4,EQRNSRWNTVLRFVKAKTHHLEP,2.52
5,EQRNSRWNTVLRGVKAKTHHLEP,2.89
6,EQRNSRWNTVLRRVKAKTHHLEP,2.57
7,EQRNSRWNTVLRNVKAKTHHLEP,3.06
8,EQRNSRWNTVLRYVKAKTHHLEP,3.1
9,EQRNSRWNTVLRMVKAKTHHLEP,3.28
10,EQRNSRWNTVLRTVKAKTHHLEP,2.97
11,EQRNSRWNTVLREVKAKTHHLEP,2.24
12,EQRNSRWNTVLRAVKADTHHLEP,3.1
13,EQRNSRWNTVLRAVKAHTHHLEP,2.52
14,EQRNSRWNTVLRAVKAYTHHLEP,2.82
15,EQRNSRWNTVLRAVKAATHHLEP,2.77
16,EQRNSRWNAVLRAVKAKTHHLEP,3.31
17,EQRNSRWNDVLRAVKAKTHHLEP,2.29
18,EQRNSRWNGVLRAVKAKTHHLEP,3.94
19,EQRNSRWNTVLRAVKAKTHFLEP,3.22
20,EQRNSRWNTVLRAVKAKTHELEP,3.19
21,EQRNSRWNTVLRAVKAKTHSLEP,2.66
22,EQRNSRWNTVLRAVKAKTHILEP,3.15

row,Variant,protein stability index
1,EQRNSRWNTVLRAVKAKTHCLEP,2.23
2,EQRNSRWNTVLRAVKAKTHVLEP,3.46
3,EQRNSRWNTVYRAVKAKTHHLEP,3.5
4,EQRNSRWNTVRRAVKAKTHHLEP,5.15
5,EQRNSRWNTVQRAVKAKTHHLEP,4.63
6,EQRNSRWNTVARAVKAKTHHLEP,3.95
7,EQRNSRWNTVNRAVKAKTHHLEP,4.51
8,EQRNSRWNTVLRAVKAKRHHLEP,3.11
9,EQRNSRWNTVLRAVKAKSHHLEP,2.29
10,EQRNSRWNTVLRAVKAKIHHLEP,3.12
11,EQRNSRWNTVLRAVKAKGHHLEP,3.12
12,EQRNSRWNTVLRAVKAKMHHLEP,2.83
13,EQRNSRWNTVLRAVKAKKHHLEP,2.97
14,EQRNSRWNTVLRAVKAKQHHLEP,3.34
15,EQRNSRWNTVLCAVKAKTHHLEP,2.74
16,EQRNSRWNTVLGAVKAKTHHLEP,2.78
17,EQRNSRWNTVLPAVKAKTHHLEP,3.05
18,EQRNSRWNTVLEAVKAKTHHLEP,2.79
19,EQRNSRWNTVLNAVKAKTHHLEP,3.21
20,EQRNSRWNTVLLAVKAKTHHLEP,2.76
21,EQRNSRWNTVLVAVKAKTHHLEP,2.47
22,EQRNSRWNTVLDAVKAKTHHLEP,2.44

row,Variant,protein stability index
1,EQRNSRWNTVLRAVFAKTHHLEP,2.9
2,EQRNSRWNTVLRAVCAKTHHLEP,3.1
3,EQRNSRWNTVLRAVWAKTHHLEP,3.24
4,EQRNSRWNTNLRAVKAKTHHLEP,3.76
5,EQRNSRWNTWLRAVKAKTHHLEP,2.78
6,EQRNSRWNTDLRAVKAKTHHLEP,4.65
7,EQRNSRWNTILRAVKAKTHHLEP,2.92
8,EQRNSRWNTCLRAVKAKTHHLEP,3.99
9,EQRNSRWNTHLRAVKAKTHHLEP,2.81
10,EQRNSRWNTVLRAVKAKTHHLIP,2.45
11,EQRNSRWNTVLRAVKAKTHHLQP,3.28
12,EQRNSRWNTVLRAVKAKTHHLRP,2.26
13,EQPNSRWNTVLRAVKAKTHHLEP,3.25
14,EQNNSRWNTVLRAVKAKTHHLEP,3.07
15,EQMNSRWNTVLRAVKAKTHHLEP,3.25
16,EQENSRWNTVLRAVKAKTHHLEP,3.33
17,EQSNSRWNTVLRAVKAKTHHLEP,3.47
18,EKRNSRWNTVLRAVKAKTHHLEP,2.71
19,ERRNSRWNTVLRAVKAKTHHLEP,2.9
20,EMRNSRWNTVLRAVKAKTHHLEP,3.12
21,EYRNSRWNTVLRAVKAKTHHLEP,2.97
22,EHRNSRWNTVLRAVKAKTHHLEP,3.12

row,Variant,protein stability index
1,EERNSRWNTVLRAVKAKTHHLEP,3.55
2,EQRNSRWNTVLRAVKAKTGHLEP,3.86
3,EQRNSRWNTVLRAVKAKTVHLEP,3.31
4,EQRNSRWNTVLRAVKAKTMHLEP,3.37
5,EQRNSRWNTVLRAVKAKTEHLEP,3.75
6,EQRNCRWNTVLRAVKAKTHHLEP,2.46
7,EQRNRRWNTVLRAVKAKTHHLEP,2.42
8,EQRNDRWNTVLRAVKAKTHHLEP,2.96
9,EQRNSDWNTVLRAVKAKTHHLEP,2.7
10,EQRNSKWNTVLRAVKAKTHHLEP,2.67
11,EQRNSWWNTVLRAVKAKTHHLEP,2.07
12,EQRNSVWNTVLRAVKAKTHHLEP,3.23
13,EQRNSQWNTVLRAVKAKTHHLEP,2.62
14,EQRRSRWNTVLRAVKAKTHHLEP,2.96
15,EQRNSRWNTVLRAVKAKTHHLEF,4.51
16,EQRNSRWNTVLRAVKAKTHHLEY,4.4
17,EQRNSRWNTVLRAVKAKTHHLEV,4.13
18,EQRNSRWNTVLRAVKAKTHHLEI,4.19
19,EQRNSRWNTVLRAVKAKTHHLEG,4.74
20,EQRNSRWWTVLRAVKAKTHHLEP,2.78
21,EQRNSRWYTVLRAVKAKTHHLEP,2.61
22,EQRNSRWCTVLRAVKAKTHHLEP,2.01

row,Variant,protein stability index
1,EQRNSRWNTVLRADKAKTHHLEP,2.89
2,EQRNSRWNTVLRASKAKTHHLEP,3.28
3,EQRNSRWNTVLRAKKAKTHHLEP,3.44
4,EQRNSRWNTVLRAWKAKTHHLEP,3.26
5,EQRNSRWNTVLRAHKAKTHHLEP,3.06
6,QQRNSRWNTVLRAVKAKTHHLEP,3.13
7,FQRNSRWNTVLRAVKAKTHHLEP,2.52
8,MQRNSRWNTVLRAVKAKTHHLEP,2.95
9,WQRNSRWNTVLRAVKAKTHHLEP,2.94
10,AQRNSRWNTVLRAVKAKTHHLEP,2.66
11,PQRNSRWNTVLRAVKAKTHHLEP,2.74
12,EQRNSRWNTVLRAVKMKTHHLEP,2.9
13,EQRNSRWNTVLRAVKNKTHHLEP,2.35
14,EQRNSRWNTVLRAVKSKTHHLEP,3.24
15,EQRNSRWNTVLRAVKAKTHHKEP,4.92
16,EQRNSRWNTVLRAVKAKTHHFEP,3.82
17,EQRNSRWNTVLRAVKAKTHHHEP,4.16
18,EQRNSRWNTVLRAVKAKTHHAEP,4.09
19,EQRNSRWNTVLRAVKAKTHHVEP,4.29

# Variants of: B2
# Assay: as above
# Conditions: c terminus: a fixed tail appended
row,Variant,protein stability index
1,FNYSVGFKDLNESLLALEDQDLDA,4.04
2,FNYPVGFKDLNESLNALEDQDLDA,3.29
3,FNYWVGFKDLNESLNALEDQDLDA,2.56
4,FNYEVGFKDLNESLNALEDQDLDA,5.53
5,FNYAVGFKDLNESLNALEDQDLDA,4.53
6,FNYKVGFKDLNESLNALEDQDLDA,4.02
7,FNYTVGFKDLNESLNALEDQDLDA,4.62
8,FNYQVGFKDLNESLNALEDQDLDA,5.1
9,FNYYVGFKDLNESLNALEDQDLDA,3.42
10,FNYCVGFKDLNESLNALEDQDLDA,4.31
11,FNYSVGFKDLNESLNALEQQDLDA,3.83
12,FNYSVGFKDLNESLNALEPQDLDA,3.65
13,FNYSVGFKDLNESLNALEMQDLDA,3.05
14,FNYSVGAKDLNESLNALEDQDLDA,5.3
15,FNYSVGHKDLNESLNALEDQDLDA,4.57
16,FNYSIGFKDLNESLNALEDQDLDA,4.38
17,FNYSPGFKDLNESLNALEDQDLDA,4.99
18,FNYSMGFKDLNESLNALEDQDLDA,4.51
19,FNYSGGFKDLNESLNALEDQDLDA,4.19
20,FNYSSGFKDLNESLNALEDQDLDA,4.86
21,FNYSYGFKDLNESLNALEDQDLDA,4.09

row,Variant,protein stability index
1,FNYSVGFKDLLESLNALEDQDLDA,3.78
2,FNYSVGFKDLSESLNALEDQDLDA,4.21
3,FNYSVGFKHLNESLNALEDQDLDA,4.08
4,FNYSVGFKTLNESLNALEDQDLDA,4.2
5,FNYSVGFKALNESLNALEDQDLDA,3.99
6,FNYSVGFTDLNESLNALEDQDLDA,3.54
7,FNYSVGFMDLNESLNALEDQDLDA,3.73
8,FNYSVGFQDLNESLNALEDQDLDA,4.72
9,FNYSVGFKDLNESLNALYDQDLDA,2.95
10,FNYSVGFKDLNESLNALVDQDLDA,3.35
11,FNYSVGFKDLNESLNALKDQDLDA,3.82
12,FNYSVGFKDLNEHLNALEDQDLDA,4.51
13,FNYSVGFKDLNEGLNALEDQDLDA,4.58
14,FNYSVGFKDLNENLNALEDQDLDA,4.17
15,FNYSVGFKDLNEVLNALEDQDLDA,3.67
16,FEYSVGFKDLNESLNALEDQDLDA,4.45
17,FCYSVGFKDLNESLNALEDQDLDA,2.18
18,FLYSVGFKDLNESLNALEDQDLDA,2.01
19,FKYSVGFKDLNESLNALEDQDLDA,4.11
20,FVYSVGFKDLNESLNALEDQDLDA,2.96
21,FNYSVGFKDLNESLNALEDQMLDA,3.83

row,Variant,protein stability index
1,FNYSVGFKDLNESLNALEDQPLDA,3.77
2,FNYSVGFKDLNESLNALEDQCLDA,3.57
3,FNYSVGFKDLNESLNALEDQHLDA,3.33
4,FNYSVGFKDLNESDNALEDQDLDA,4.89
5,FNYSVGFKDLNESNNALEDQDLDA,5.06
6,FNYSVGFKDLNESQNALEDQDLDA,4.88
7,FNYSVGFKDLNESANALEDQDLDA,4.71
8,FNYSVGFKDLNESENALEDQDLDA,4.51
9,FNYSVGFKDLNESLNALEDPDLDA,3.97
10,FNYSVGFKDLNESLNALEDTDLDA,4.84
11,FNYSVGFKDLNESLNALEDRDLDA,3.21
12,FNYSVGFKDLNESLNALEDVDLDA,4
13,FNYSVGFKDLNESLNALEDYDLDA,3.85
14,FNYSVGFKDLNESLNALEDHDLDA,4.42
15,FNYSVGFKDHNESLNALEDQDLDA,4.58
16,FNYSVGFKDINESLNALEDQDLDA,4.26
17,FNYSVGFKDKNESLNALEDQDLDA,4.88
18,FNYSVGFKDDNESLNALEDQDLDA,5.16
19,FNNSVGFKDLNESLNALEDQDLDA,5.12
20,FNHSVGFKDLNESLNALEDQDLDA,4.07
21,FNKSVGFKDLNESLNALEDQDLDA,5.17

row,Variant,protein stability index
1,FNWSVGFKDLNESLNALEDQDLDA,3.87
2,ENYSVGFKDLNESLNALEDQDLDA,5.53
3,KNYSVGFKDLNESLNALEDQDLDA,4.39
4,SNYSVGFKDLNESLNALEDQDLDA,4.44
5,RNYSVGFKDLNESLNALEDQDLDA,5.42
6,GNYSVGFKDLNESLNALEDQDLDA,4.72
7,YNYSVGFKDLNESLNALEDQDLDA,4.91
8,FNYSVWFKDLNESLNALEDQDLDA,2.32
9,FNYSVLFKDLNESLNALEDQDLDA,2.3
10,FNYSVIFKDLNESLNALEDQDLDA,3.03
11,FNYSVDFKDLNESLNALEDQDLDA,4.85
12,FNYSVGFKDLNMSLNALEDQDLDA,3.87
13,FNYSVGFKDLNPSLNALEDQDLDA,4.53
14,FNYSVGFKDLNESLNAIEDQDLDA,4.68
15,FNYSVGFKDLNESLNAVEDQDLDA,4.68
16,FNYSVGFKDLNESLNAQEDQDLDA,4.88
17,FNYSVGFKDLNESLNALEDQDLGA,4.41
18,FNYSVGFKDLNESLNALEDQDLNA,4.31
19,FNYSVGFKDLNESLNALEDQDLDH,4.52
20,FNYSVGFKDLNESLNALEDQDLDT,4.45
21,FNYSVGFKDLNESLNALEDQDLDR,3.83
